From US20260297190 (published 2026) come the findings set out here.

In general, EC50 refers to the midpoint of the concentration-response curve. The low end stands for a more potent agent, the high end for a less potent agent. Broadly, the Kd is the free concentration of one partner at which half of the binding sites on the other are occupied at equilibrium, for simple one-to-one binding. A higher Kd goes with a looser complex.

In one assay the target is CD47 on Raji cells (human, UniProt Q08722). Description: FACS, Raji cells, 4C.
Chain of CD47 on Raji cells (Q08722 19-323): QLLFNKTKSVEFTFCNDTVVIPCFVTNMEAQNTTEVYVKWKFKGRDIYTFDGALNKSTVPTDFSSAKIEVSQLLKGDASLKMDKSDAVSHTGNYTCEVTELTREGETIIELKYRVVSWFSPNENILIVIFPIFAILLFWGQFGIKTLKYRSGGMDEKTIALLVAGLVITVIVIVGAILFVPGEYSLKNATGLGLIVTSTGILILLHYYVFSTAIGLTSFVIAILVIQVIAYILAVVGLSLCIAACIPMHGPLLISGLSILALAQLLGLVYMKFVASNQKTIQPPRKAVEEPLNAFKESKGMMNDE
The next assay has as its target human CD47-Fc (human). Description: SPR. (In general: Surface plasmon resonance follows binding to a sensor surface in real time, without labels.)

Chain of human CD47-Fc (human) (chain, as listed by the source): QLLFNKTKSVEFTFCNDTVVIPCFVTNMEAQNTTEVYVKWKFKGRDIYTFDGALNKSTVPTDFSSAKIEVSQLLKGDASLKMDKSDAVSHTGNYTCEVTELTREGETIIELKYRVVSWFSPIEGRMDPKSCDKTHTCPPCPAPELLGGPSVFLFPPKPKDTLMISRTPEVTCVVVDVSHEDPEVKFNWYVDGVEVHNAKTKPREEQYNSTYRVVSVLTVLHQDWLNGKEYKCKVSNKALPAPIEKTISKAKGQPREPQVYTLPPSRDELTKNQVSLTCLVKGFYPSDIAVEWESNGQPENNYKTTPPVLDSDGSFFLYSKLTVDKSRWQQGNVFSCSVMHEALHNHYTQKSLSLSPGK

B1: DARPin protein #5 (designed binder)
chain: DLGRKLLQAAARGQDDEVRELLKAGADVNAKDLLGRTPLHLAASIGHLEIVEVLLKAGADVNAKDERGFTPLHIAALQGHLEIVEVLLKAGADVNAQDLEGRTPADLAAEEGHEDIAEVLQKAA
Take B1: in the assay with CD47 on Raji cells, it took 45.5 nM to reach a half-maximal effect (EC50). In the assay with human CD47-Fc, this molecule yielded an equilibrium dissociation constant (Kd) of 0.552 nM.

B2: DARPin protein #8 (designed binder)
chain: DLGKKLLQAAARGQDDEVRELLKAGADVNAKDLLGRTPLHLAASIGHLEIVEVLLKAGADVNAKDSRGFTPLHLAAIIGHLEIVEVLLKAGADVNAQDLKGLTPADLAAAEGHEDIAEVLQKAA
Regarding B2, the response with CD47 on Raji cells was half-maximal at 17.2 nM (EC50). The same molecule returned a Kd in the assay with human CD47-Fc of 0.102 nM.

B3: DARPin protein #7 (designed binder)
chain: DLGEKLLKAAARGQDDEVRELLKAGADVNAKDLLGRTPLHLAASIGHLEIVEVLLKAGADVNAKDERGYTPLHIAAIVGHLEIVEVLLKAGADVNAQDARGATPADLAAREGHEDIAEVLQKAA
The molecule B3 had an EC50 with CD47 on Raji cells of 28.5 nM. The molecule further displayed a Kd with human CD47-Fc of 0.352 nM.

B4: DARPin protein #3 (designed binder)
chain: DLGRKLLQAAARGQDDEVRELLKAGADVNAKDLHGRTPLHLAAAIGHLEIVEVLLKAGADVNAKDFLGWTPLHIAAFRGHLEIVEVLLKAGADVNAQDEAGETPADLAAQEGHEDIAEVLQKAA
B4: the EC50 with CD47 on Raji cells was determined as 58.4 nM. The same molecule displayed a Kd with human CD47-Fc of 0.562 nM.

B5: DARPin protein #6 (designed binder)
chain: DLGRKLLQAAARGQDDEVRELLKAGADVNAKDLHGRTPLHLAAAIGHLEIVEVLLKAGADVNAKDVFGYTPLHIAAFRGHLEIVEVLLKAGADVNAQDERGETPADLAAEAGHEDIAEVLQKAA
For the molecule B5, in the assay with CD47 on Raji cells, it took 48 nM to reach a half-maximal effect (EC50). For the same molecule, the Kd with human CD47-Fc is 0.24 nM.

B6: DARPin protein #4 (designed binder)
chain: DLGKKLLQAAARGQDDEVRELLKAGADVNAKDLKGRTPLHLAAATGHPEIVEVLLKAGADVNAKDQFGYTPLHIAAAWGHLEIVEVLLKAGADVNAQDQKGETPADLAAKEGHEDIAEVLQKAA
In the assay with CD47 on Raji cells, B6 registered an EC50 of 74.7 nM. The Kd with human CD47-Fc turned out to be 0.244 nM.

B7: DARPin protein #2 (designed binder)
chain: DLGIKLLHAAFQGQDDEVRILLAAGADVNAKDKVGRTPLHRAAQWGHLEIVEVLLKAGADVNAKDHVGWTPLHLAAWRGHLEIVEVLLKAGADVNAQDASGFTPADLAARQGHEDIAEVLQKAA
Turning to B7, the EC50 in the assay with CD47 on Raji cells is 20.9 nM. In the assay with human CD47-Fc, the affinity, expressed as Kd, was 0.813 nM.

B8: DARPin protein #1 (designed binder)
chain: ALGKKLLQAAARGQDDEVRELLKAGADVNAKDLIGRTPLHLAASIGHLEIVEVLLKAGADVNAKDSRGWTPLHIAAVSGHLEIVEVLLKAGADVNAQDRAGATPADLAAAEGNEDIAEVLQKAA
B8 came in with an EC50 in the assay with CD47 on Raji cells of 40.4 nM. The same molecule gave a Kd with human CD47-Fc of 0.328 nM.
